The values that follow come from patent US20250002563A1 (UNIVERSITY OF PITTSBURGH OF THE COMMONWEALTH SYSTEM OF …, published 2025).

Usually IC50 stands for the concentration that gives 50% inhibition. Low readings indicate inhibition by little substance, high ones a need for much substance. By Kd is commonly meant a measure of binding affinity in units of concentration.

Test [1] has as its target spike of SARS-CoV-2 Munich strain (authentic virus) (SARS-CoV-2). Nature of the test: cell-based or functional assay.
Test [2] addresses T1, RBDSARS-CoV (SARS-CoV S protein residues 318-510, C-terminal His-tag) (SARS-CoV, UniProt P59594 318-510). The test is described as follows: ELISA.
Test [3] deals with T2, RBDSARS-CoV-2 (SARS-CoV-2 S protein residues 319-539, C-terminal His-tag) (SARS-CoV-2, UniProt P0DTC2 319-539). The test is described as follows: ELISA.
Test [4] addresses SARS-CoV-2 spike on pseudotyped virus particles (Wuhan-Hu-1 strain) (SARS-CoV-2, UniProt P0DTC2 14-1273). Nature of the test: cell-based or functional assay.
The target in test [5] is T1, RBDSARS-CoV (SARS-CoV S protein …). The test is described as follows: SPR, RBD immobilized on CM5. On the technique in general: In SPR one partner is held on a chip, and binding of the other changes the refractive index at the surface.
For test [6], the target named is T2, RBDSARS-CoV-2 (SARS-CoV-2 S protein …). Nature of the test: SPR, RBD immobilized on CM5.
Test [7] addresses recombinant RBD of the SARS-CoV-2 S protein (Example 1) (SARS-CoV-2, UniProt P0DTC2 319-541). The test is described as follows: SPR, RBD immobilized on CM5.

Bounds are passed on as bounds.

B1: 5p-182 (VHH)
VHH: EVQLVESGGGLVQTGGSLRLSCALSGYTFSIFPTAWFRQAPGKEREFVAGIRWNGSTRDYTEYADFVKGRFTISRDNAKNMVYLQMISLKPEDTALYYCAASDGVIDGTNANAYRYWGQGTQVTVSS
notes: class I psNb
As for B1, in test [1], the “PRNT SARS-CoV-2 Munich IC50” value stood at 0.35 nM. The figures for the IC50 in test [2] and in test [3] were 1000 to 8000 nM and less than 10 nM, respectively.

B2: Nb20 (VHH)
VHH: QVQLVESGGGLVQAGGSLRLSCAVSGAGAHRVGWFRRAPGKEREFVAAIGASGGMTNYLDSVKGRFTISRDNAKNTIYLQMNSLKPQDTAVYYCAARDIETAEYIYWGQGTQVTVSS
In the case of B2, in test [4], the “IC50, pseudotyped SARS-CoV-2 neutralization assay (luciferase)” value (“IC50 … (luciferase)” below) was 0.102 nM.

B3: Nb21 (VHH)
VHH: QVQLVESGGGLVQAGGSLRLSCAVSGLGAHRVGWFRRAPGKEREFVAAIGANGGNTNYLDSVKGRFTISRDNAKNTIYLQMNSLKPQDTAVYYCAARDIETAEYTYWGQGTQVTVSS
With B3, the “IC50 … (luciferase)” value in test [4] was determined as 0.045 nM.

B4: 5p-35 (VHH)
VHH: HVQLVESGGGLVQAGGSLRLSCAASGRTFSRYAAGWFRQAPGKEREFVAVIEWDGDSAYYADPVKGRFTISRDNAKNTVYLQMNRLKPEDTAVYICAVGGNHYSRSKYYNLDEYDDWGQGTQVTVSS
notes: class II(B) psNb
With B4, the “PRNT SARS-CoV-2 Munich IC50” value in test [1] came to 42.2 nM. Besides, the IC50 in test [2] and in test [3] was less than 10 nM throughout.

B5: 5p-132 (VHH)
VHH: QVQLVESGGGLVQAGGSLRLSCTASGYDFSILAIAWYRQAPGKERELVAAISRVGSTDYADSVKGRFTISRDNTKNTVSLQMDSLKPEDTAVYYCNAGIPMTTVLSGLGFWGQGTQVTVSS
notes: class IV psNb
With B5, the Kd turned out to be 304 nM in test [5] and 0.39 nM in test [6]. The same molecule yielded an IC50 in test [3] of less than 10 nM.

B6: 5p-118 (VHH)
VHH: QVQLVESGGGLVQAGESLRLSCAASKPTFRNFAAGWFRQTPGKDREFVAVIEYDGDSAYYADSVKGRFTISRDNAKNTVYLQMNRLKPGDTAVYICAIGGNHYDPSKYYTADEYDYWGQGTQVTVSS
notes: class II(B) psNb
Turning to B6, the “PRNT SARS-CoV-2 Munich IC50” value in test [1] was determined as 7.41 nM. Moreover, the results for the Kd in test [5] and in test [6] were 0.00396 nM and less than 0.001 nM, respectively. Further, the IC50 in test [2] and in test [3] was less than 10 nM each time.

B7: Nb89 (VHH)
VHH: HVQLVESGGGLVQAGGSLRLSCAASGGTFTTFRMAWFRQTPGKEREFVAASSWGFVNYADPVKGRFTISRDNAKNTVYLEMSSLKTEDTAVYYCAARNPGTGQYDYWGQGTQVTVSS
In the case of B7, the “IC50 … (luciferase)” value in test [4] was 0.129 nM. For the same molecule, the Kd in test [7] is 0.108 nM.

B8: 5p-38 (VHH)
VHH: QVQLVESGGGLVQAGGSLRLSCAAAARFSTSAMGWFRQAPGKEREFVAAISWSNTNTHYADTVKGRFTISADTAKETVDLQMNSLKPEDTAVYYCVQGGWGIRQPIIVDYWGKGTQVTVSS
notes: class II(B) psNb
Take B8: the “PRNT SARS-CoV-2 Munich IC50” value in test [1] was determined as 59.9 nM. Also, the IC50 in test [2] and in test [3] was less than 10 nM in each case.

B9: 5p-60 (VHH)
VHH: QVQLVESGGGLVQAGGSLRLSCAVSGRTISTFGMGWFRQAPGKEREFVATITRDEDMLLYADSVKGRFTISRDTAKNMVFLQMNSLKIEDTALYYCAVRRDSSWGYSRQSTEYDYWGQGTQVTVSS
notes: class II(A) psNb
With B9, the “PRNT SARS-CoV-2 Munich IC50” value in test [1] was 9.79 nM. The IC50 in test [2] and in test [3] was less than 10 nM each time.
